Measurements as given in article PMC1769499.

Tests used:
[1] = molecular target: recombinant Lhcb1 protein (LHCII apoprotein reconstituted in vitro with chlorophylls and xanthophylls); assay: sucrose density gradient ultracentrifugation; in vitro trimerization of Lhcb1 reconstituted with lutein as only xanthophyll (100% lutein) plus Chl a and b; bound to Ni2+ column, washed with 0.1 mg/ml PG, 0.06% β-DM, 0.2 M NaCl, 20 mM phosphate pH 7.5, 10 mM imidazole; eluted, trimers separated from monomers on a sucrose gradient
[2] = molecular target: recombinant Lhcb1 protein (LHCII apoprotein reconstituted in vitro with chlorophylls and xanthophylls); assay: sucrose density gradient ultracentrifugation; in vitro trimerization of Lhcb1 reconstituted with a mix of all xanthophylls (L,V,N) plus Chl a and b; bound to Ni2+ column, washed with 0.1 mg/ml PG, 0.06% β-DM, 0.2 M NaCl, 20 mM phosphate pH 7.5, 10 mM imidazole; eluted, trimers separated from monomers on a sucrose gradient

- stoichiometry N [1]: 3
- stoichiometry N [2]: 3
Substance: recombinant Lhcb1 protein (LHCII apoprotein reconstituted in vitro with chlorophylls and xanthophylls) (natural protein)
